40 sequences from the nanobody polyreactivity screen of Harvey et al. (2022) can be followed below.

A short description of the data set: yeast display, Sf9 membrane polyspecificity reagent, FACS + sequencing; frameworks hold sequencing errors. The method, boiled down:
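In a synthetic yeast display library (Saccharomyces cerevisiae BJ5465), nanobody expression was induced with galactose for 36–48 hours. FACS gates were set low and high (top ~1%) using anti-HA fluorescence for expression and streptavidin fluorescence for binding of the Sf9 membrane reagent. Each polyreactivity label is drawn from the gate of origin.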
For “QVQLVESGGGLVQAGGSLRLSCAASGSIFNYYAMGWYRQEPGKERELVAAISSGGSTYYADSVKGRFTISRDNAKNTVYLQMNSLKPEDTAVYYCAVDSPYLDEYDYWGQGTQVTVSS”, the “polyreactivity (PSR sort gate)” value is listed as “high polyreactivity”.

Consider “QVQLVESGGGLVQAGGSLRLSCAASGSIFNYYTMGWYRQAPGKERELVAAISWSGGSTYYADSVKGRFTISRDNAKNTVYLQMNSLKPEDTAVYYCAAVVRYSQAGYYYWGQGTQVTVSS”, for which the “polyreactivity (PSR sort gate)” value was “high polyreactivity”.

Take “QVQLVESGGGLVQAGGSLRLSCAASGSIFPFYAMGWYRQAPGKERELVAAISWSVGNTYYADSVKGRFTISRDNAKNTVYLQMNRLKPEDTAVYYCAARQDPPLGYDYWGQGTQVTVSS”: the “polyreactivity (PSR sort gate)” value was “low polyreactivity”.

Turning to “QVQLVESGGGLVQAGGSLRLSCAASGSIFPGNTMGWYRQAPGKERELVAVITKRGGRTYYADSVKGRFTISRDNAKNTVYLQMNSLKPEDTAVYYCARAPSYSTGVSIRDYWGQGTQVTVSS”, the “polyreactivity (PSR sort gate)” value is listed as “high polyreactivity”.

For “QVQLVESGGGLVQAGGSLRLSCAASGSIFPGYAMGWYRQAPGKERELVADITSGDTTKYADSVKGRFTISRDNAKNNVYLQMNSLKPEDTAVYYCAADDYLTDFDYWGQGTQVTVSS”, the “polyreactivity (PSR sort gate)” value was “low polyreactivity”.

Turning to “QVQLVESGGGLVQAGGSLRLSCAASGSIFPGYTMGWYRQAPGKESELVAAITSSGGSTYYADSVKGRITISRDNAKNTVYLQMNSLKPEDTSVYYCAADTTNYFVPFDYWGLGTQVTVSS”, the “polyreactivity (PSR sort gate)” value is “low polyreactivity”.

For the sequence “QVQLVESGGGLVQAGGSLRLSCAASGSIFPHYAMGWSRQAPGKEREFVATISGSTGRTYYADSVKGRFTISRDNAKNTVYLQMNSLKPEDTAVYYCATSVGYYLPPIKYDYWGQGTQVTVSS”, the “polyreactivity (PSR sort gate)” value is recorded as “low polyreactivity”.

Consider “QVQLVESGGGLVQAGGSLRLSCAASGSIFPINAMGWSRQAPGKERELVAAITVSDGRTYYADSVKGRFTISRDNAKNTVYLQMNSLKPEDTAVYYCAAVTPFRVLYDYWGQGTQVTVSS”, for which the “polyreactivity (PSR sort gate)” value is “low polyreactivity”.

For the sequence “QVQLVESGGGLVQAGGSLRLSCAASGSIFPIYAMGRYRQAPGKEMELVAAINRSGGSTYYADSVKGRFTISRDNAKNSVYLQMNSLIPEDTAVYYCNADYGYHNQLFWGYYGWSSDHWGQGTQVTVSS”, the “polyreactivity (PSR sort gate)” value is given as “low polyreactivity”.

As for “QVQLVESGGGLVQAGGSLRLSCAASGSIFPKYAMGWYRQAPGKERELVAAITSSGGRTYYADSVKGRFTISRDNAKNTVYLQMNSLKPEDTAVYYCAARSPRASGNSDYWGQGTQVTVSS”, the “polyreactivity (PSR sort gate)” value was “high polyreactivity”.

As to “QVQLVESGGGLVQAGGSLRLSCAASGSIFPLYDMGWYRLAPGKERELVAGITGSGGSTYYADSVKGRFTISRDNAKNTVYLQMNSLKPEDTAVYYCAADYSLYGWWFRNDYWGQGTQVTVSS”, the “polyreactivity (PSR sort gate)” value is on record as “low polyreactivity”.

Turning to “QVQLVESGGGLVQAGGSLRLSCAASGSIFPPYTMGWYRQAPGKERELVAAISWGGGSTYYADSVKGRFTISRDNAKNTVYLQMNSLKPEDTAVYYCAAGRYYRGYYWGQGTQVTVSS”, the “polyreactivity (PSR sort gate)” value is “high polyreactivity”.

For the sequence “QVQLVESGGGLVQAGGSLRLSCAASGSIFPPYVMGWYRQAPGKERELVASITTSGGSTYYADSVKGRFTISRDNAKNTVYLQIKSLKPEDTAVYYCAARWYYGGKSAGPGGGYWGQGTQVTVSA”, the “polyreactivity (PSR sort gate)” value was “low polyreactivity”.

As to “QVQLVESGGGLVQAGGSLRLSCAASGSIFPRNAMGWYRQAPGKERELVARINSGGTTKYADSVKGRFTISRDNAKYTVFLQMNSLKPEDTAGYYCNADTYILDPLRKSYGYDYWGQGTQVTVSS”, the “polyreactivity (PSR sort gate)” value is given as “low polyreactivity”.

For the sequence “QVQLVESGGGLVQAGGSLRLSCAASGSIFPRYAMGWYSQAPGKERELVATISYRGGTTYYADSVKGRFTISRDNEKNTVYLQMNSLKPEDSAVYYCNTLYYRGIYDPWGQGTQVTVSS”, the “polyreactivity (PSR sort gate)” value is listed as “high polyreactivity”.

“QVQLVESGGGLVQAGGSLRLSCAASGSIFPRYGMGLYRQAPGKERELVAAITTGGNTYYADSVKGRFTISRDNAKNTVYLQMNSLKPEDTAVYYCNARAVTPWFGFYYWGQGTQVTVSS”: the “polyreactivity (PSR sort gate)” value was “low polyreactivity”.

For the sequence “QVQLVESGGGLVQAGGSLRLSCAASGSIFPSYAMGWYRQAPGKERELVAAINWDGGSTFYADSVKGRFTISRDNAKNTVYLQMKSLKPEDTAVYYCAAPDNYGGVGGITFWRMDYWGQGTQVTVSS”, the “polyreactivity (PSR sort gate)” value is on record as “low polyreactivity”.

As to “QVQLVESGGGLVQAGGSLRLSCAASGSIFPSYAMGWYRQAPGKERELVATIGRGGTTNYADSVKGRFTISRDNAKNTVYLQMNSLKPEDTEVYYCNAERIWRYKYGYDYWGQGTQVTVSS”, the “polyreactivity (PSR sort gate)” value is on record as “high polyreactivity”.

As for “QVQLVESGGGLVQAGGSLRLSCAASGSIFPSYAMGWYRQAPGKERELVATISGSGTSTYYADSVKGRFTISRDNAKNTVYLQMNSLKPEDTAVYYSAADPWLGTGRYDYWGQGTQVTVSS”, the “polyreactivity (PSR sort gate)” value is “low polyreactivity”.

In the case of “QVQLVESGGGLVQAGGSLRLSCAASGSIFPTNTMGWYRQAPGKERELVASINSDGSTNYADSVKGSFTISRDNAKNTVYLQMNSLKPEDTAVYYWAADTQGSEYEFWGQGTQVTVSS”, the “polyreactivity (PSR sort gate)” value was “low polyreactivity”.

Regarding “QVQLVESGGGLVQAGGSLRLSCAASGSIFPTYALGWYRQAPGKERELVAAISSIVGGTYYADSVKGRFTISRDNAKNTVYLQMNSLKPEDTAVYYCNKTKFQGYDYWGQGTQVTVSS”, the “polyreactivity (PSR sort gate)” value is given as “low polyreactivity”.

In the case of “QVQLVESGGGLVQAGGSLRLSCAASGSIFPTYVMGWYRQAPGKERELVAAISARGDSTYADSVKGRFTISRDNAKNTVYLQMNSLKPEDTAVYYCAKSAHSDYVYSRLEFGYWGQGTQVTVSS”, the “polyreactivity (PSR sort gate)” value is reported as “low polyreactivity”.

For the sequence “QVQLVESGGGLVQAGGSLRLSCAASGSIFPVNAMGWYRQAPGKERELVAAISSDGTTYYADSVKGRFTISRDNAKNTVYLQMNSLKPEDTAVYYCAKDRRYYKAYDYWGQGTLVTVSS”, the “polyreactivity (PSR sort gate)” value was “low polyreactivity”.

Consider “QVQLVESGGGLVQAGGSLRLSCAASGSIFPVYAMGWYRQAPGKERELVASISTGGSTYYADSVKGRFTISRDNAKNTVYLQMNSLKPEDTAVYYCSATGWAYGYGYGYWGQGTQVTVSS”, for which the “polyreactivity (PSR sort gate)” value is recorded as “low polyreactivity”.

Consider “QVQLVESGGGLVQAGGSLRLSCAASGSIFPWNAMGWYRKAHGKARELVAVISQNGGRTYYADSVKGSFTISRDKAKNTVYLQMNSLKPEDTAVYYCAARPRLPRQIGGDGHLDDYWGQGTQVTVSS”, for which the “polyreactivity (PSR sort gate)” value is recorded as “high polyreactivity”.

In the case of “QVQLVESGGGLVQAGGSLRLSCAASGSIFPWNAMGWYRQAPGKERELVAAISYSGTRTYYADSVKGRFTISRDNAKNTVYLQMNSLKPVDTAVYYCNARGYTRSYVKYDYWGQGTQVTVSS”, the “polyreactivity (PSR sort gate)” value is recorded as “high polyreactivity”.

Turning to “QVQLVESGGGLVQAGGSLRLSCAASGSIFPWYAMGWYRQAPWKERELVAGISSGGGTNYADSVKGRFTISRDNAKNTVYLQMNSMKPEDTAVYYCNADYFGGGDYWGQGTQVTVSS”, the “polyreactivity (PSR sort gate)” value is listed as “low polyreactivity”.

Regarding “QVQLVESGGGLVQAGGSLRLSCAASGSIFPWYVMGWYRQAPRKERELVASITYRGASTYYADSVKGRFTISRDNAKNTVYLQMNSLKPEDTAVYYCADFRSYYSERHDYGYWGQGTQVTVSS”, the “polyreactivity (PSR sort gate)” value is reported as “low polyreactivity”.

As to “QVQLVESGGGLVQAGGSLRLSCAASGSIFPYNAMGWYRQAPGKERELVAAISRSGGSTYYADSVKGRFTISRDNAKNTVYLQMNSLKPEDTAVYYCAAYSLYWRDDYWGQGTQVTVSS”, the “polyreactivity (PSR sort gate)” value is “high polyreactivity”.

Take “QVQLVESGGGLVQAGGSLRLSCAASGSIFPYNAMGWYRQAPGKERELVATISSGGSTNYADSVKGRFTISRDNAKNTVYLQMNSLKPEDTAVYDCAADVIVFYYAPNYWGDIGYGYWGQGTQVTVSS”: the “polyreactivity (PSR sort gate)” value is “low polyreactivity”.

Regarding “QVQLVESGGGLVQAGGSLRLSCAASGSIFPYNVMGWYRQAPGKERELVAVITGSTGRTYYADSVKGRFTISRDNAKNTVYLQMNSLKPEDTAVYYCAKRRYWAPYDYWGQGTQVTVSS”, the “polyreactivity (PSR sort gate)” value is recorded as “high polyreactivity”.

As for “QVQLVESGGGLVQAGGSLRLSCAASGSIFPYYAMGWYRQAPGKEREFVAAITISGGSTYYADSVKGRFTISRDNAKNTVYLQMNSLKPEDTAVYYCNADKGYVYGDTFYQSGGYYSWGQGTQVTVSS”, the “polyreactivity (PSR sort gate)” value is given as “low polyreactivity”.

For “QVQLVESGGGLVQAGGSLRLSCAASGSIFPYYAMGWYRQAPGKERELVAAISSGDITDYADSVKGRFTISRDNAKNTVYLQMNSLKPEDTAVYYCAAVYDLGYYGPIWAIVLDDYWGQGTQVTVSS”, the “polyreactivity (PSR sort gate)” value was “low polyreactivity”.

For “QVQLVESGGGLVQAGGSLRLSCAASGSIFPYYAMGWYRQAPGKERELVAAITLSGGRTYYADSVKGRFTISRDNAKNTVYLQMNSLKPEDTAVYYCNVYRSKKRYGWGEDDYWGQCTQVTVSS”, the “polyreactivity (PSR sort gate)” value was “high polyreactivity”.

For the sequence “QVQLVESGGGLVQAGGSLRLSCAASGSIFPYYAMGWYRQAPGKETELVAVINSGGITNYADSVKGRFTISRDNAKNTVYLQMNSLKPEDTAVYYCAAAASPLTRHLYWGQGTQVTVSS”, the “polyreactivity (PSR sort gate)” value is listed as “low polyreactivity”.

“QVQLVESGGGLVQAGGSLRLSCAASGSIFPYYTMGWYRQAPGKERELVAAISGSGTSTYYADSVKGRFTISRDNAKNTVYLQMNSLKPEDTADYYCAAPDPDKVRSEGYGYWGQGTHVTVSS”: the “polyreactivity (PSR sort gate)” value is recorded as “low polyreactivity”.

“QVQLVESGGGLVQAGGSLRLSCAASGSIFQAYVMGWYRQAPGTERELVATIDRRGGITYYADSVKGRFTISRDNAKNNVYLQMNSLKPEDTAVYYCATALIVLGPSRYEYWGQGTQVTVSS”: the “polyreactivity (PSR sort gate)” value is listed as “high polyreactivity”.

In the case of “QVQLVESGGGLVQAGGSLRLSCAASGSIFQDYAMGWYRQAPGKERELVAAITSDGSTYYADSVKGRFTISRDNAKNTVYLQMNSLKPEDTAVYYCATDKLYGRTVRMDYWGQGTQVTVSS”, the “polyreactivity (PSR sort gate)” value is “low polyreactivity”.

Regarding “QVQLVESGGGLVQAGGSLRLSCAASGSIFQFNGMGWYRQAPGKERELVASINWSGGSTNYADSVMGRFTISRDNAKNTVYLQMNSLKAEDTAVYYCAVGHRIYRSRYNYWGQGTQVTVSS”, the “polyreactivity (PSR sort gate)” value is recorded as “low polyreactivity”.

On to “QVQLVESGGGLVQAGGSLRLSCAASGSIFQFYAMGWYRQAPGKERELVAAITGDGSTDYADSVKGRFTISRDNAKNTVYLQMNSLKPEDTAVYYCAADLWRYLGWYYIYHYDYWGQGTQVTVSS”, for which the “polyreactivity (PSR sort gate)” value is listed as “low polyreactivity”.
